Results: paper PMC7693034, “Identification of Amino Acid Residues Responsible for C−H Activation in Type‐III Copper Enzymes by Generating Tyrosinase Activity in a Catechol Oxidase” (Angewandte Chemie (International Ed. in English), 2020)
Changes are numbered by the printed parent chain. In names and notes the source's numbering stands.

Legend:
[1] = target: T1, CgAUS (aurone synthase from Coreopsis grandiflora) (Coreopsis grandiflora, UniProt A0A075DN54); assay: enzyme kinetics, diphenolase activity; assay type: biochemical; conditions: type-III copper enzyme, copper content 46.1%; read-out: Dopamine / K m
T1 construct: recombinant from E. coli, purified to homogeneity
T1 sequence (A0A075DN54 86-602): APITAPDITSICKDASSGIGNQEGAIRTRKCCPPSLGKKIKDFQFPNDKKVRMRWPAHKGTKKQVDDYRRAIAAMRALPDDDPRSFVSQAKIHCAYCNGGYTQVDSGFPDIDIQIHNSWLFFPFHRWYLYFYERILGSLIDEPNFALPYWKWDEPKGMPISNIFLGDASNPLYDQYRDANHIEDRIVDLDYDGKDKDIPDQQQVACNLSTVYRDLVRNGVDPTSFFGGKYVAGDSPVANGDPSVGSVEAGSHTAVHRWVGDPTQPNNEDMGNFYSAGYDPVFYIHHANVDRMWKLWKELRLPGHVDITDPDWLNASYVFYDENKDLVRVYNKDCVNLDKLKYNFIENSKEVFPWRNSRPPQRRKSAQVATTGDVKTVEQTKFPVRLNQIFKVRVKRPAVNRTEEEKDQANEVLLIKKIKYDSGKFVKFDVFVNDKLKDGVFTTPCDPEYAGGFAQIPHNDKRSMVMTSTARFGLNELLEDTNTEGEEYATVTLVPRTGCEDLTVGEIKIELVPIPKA
From the text: (§1) enzyme kinetics, diphenolase activity on CgAUS (aurone synthase from Coreopsis grandiflora)

[2] = target: T2, CgAUS (aurone synthase from Coreopsis grandiflora) (Coreopsis grandiflora, UniProt A0A075DN54, C182S); assay: enzyme kinetics, diphenolase activity; assay type: biochemical; conditions: type-III copper enzyme; read-out: Dopamine / K m
T2 construct: recombinant from E. coli, purified to homogeneity
T2 sequence (A0A075DN54 86-602 C182S): T1 sequence (A0A075DN54 86-602) with C97S
From the text: as §1

[3] = target: T3, CgAUS (aurone synthase from Coreopsis grandiflora) (Coreopsis grandiflora, UniProt A0A075DN54, C182S/T338D/R342D); assay: enzyme kinetics, diphenolase activity; assay type: biochemical; conditions: type-III copper enzyme; read-out: Dopamine / K m
T3 construct: recombinant from E. coli, purified to homogeneity
T3 sequence (A0A075DN54 86-602 C182S/T338D/R342D): T1 sequence (A0A075DN54 86-602) with C97S, T253D, R257D
From the text: as §1

[4] = target: T4, CgAUS (aurone synthase from Coreopsis grandiflora) (Coreopsis grandiflora, UniProt A0A075DN54, R342D); assay: enzyme kinetics, diphenolase activity; assay type: biochemical; conditions: type-III copper enzyme; read-out: Dopamine / K m
T4 construct: recombinant from E. coli, purified to homogeneity
T4 sequence (A0A075DN54 86-602 R342D): T1 sequence (A0A075DN54 86-602) with R257D
From the text: as §1

[5] = target: T5, CgAUS (aurone synthase from Coreopsis grandiflora) (Coreopsis grandiflora, UniProt A0A075DN54, T338D); assay: enzyme kinetics, diphenolase activity; assay type: biochemical; conditions: type-III copper enzyme; read-out: Dopamine / K m
T5 construct: recombinant from E. coli, purified to homogeneity
T5 sequence (A0A075DN54 86-602 T338D): T1 sequence (A0A075DN54 86-602) with T253D
From the text: as §1

[6] = target: T6, CgAUS (aurone synthase from Coreopsis grandiflora) (Coreopsis grandiflora, UniProt A0A075DN54, T338D/R342D); assay: enzyme kinetics, diphenolase activity; assay type: biochemical; conditions: type-III copper enzyme; read-out: Dopamine / K m
T6 construct: recombinant from E. coli, purified to homogeneity
T6 sequence (A0A075DN54 86-602 T338D/R342D): T1 sequence (A0A075DN54 86-602) with T253D, R257D
From the text: as §1

[7] = substrate: NCCc1ccc(O)cc1; assay: enzyme kinetics, monophenolase activity; assay type: biochemical, Coreopsis grandiflora; conditions: type-III copper enzyme
From the text: enzyme kinetics, monophenolase activity on CgAUS (aurone synthase from Coreopsis grandiflora)

NCCc1ccc(O)c(O)c1 [dopamine]
Km [1]: 8630 ± 280 µM | Km [2]: 1260 ± 40 µM | Km [3]: 60 µM | Km [4]: 1260 ± 130 µM | Km [5]: 1930 ± 120 µM | Km [6]: 240 ± 20 µM

B1: CgAUS (aurone synthase from Coreopsis grandiflora) (Coreopsis grandiflora; C182S) (protein)
chain: T1 sequence (A0A075DN54 86-602) with C97S
notes: recombinant from E. coli, purified to homogeneity
Km [7]: 3590 ± 330 µM | kcat [7]: 0.55 ± 0.04 s⁻¹

B2: CgAUS (aurone synthase from Coreopsis grandiflora) (Coreopsis grandiflora; R342D/T338D) (protein)
chain: T1 sequence (A0A075DN54 86-602) with T253D, R257D
notes: as for B1
Km [7]: 1090 ± 90 µM | kcat [7]: 9.48 ± 0.55 s⁻¹

B3: CgAUS (aurone synthase from Coreopsis grandiflora) (Coreopsis grandiflora; T338D) (protein)
chain: T1 sequence (A0A075DN54 86-602) with T253D
notes: as for B1
Km [7]: 30900 ± 7270 µM | kcat [7]: 2.14 ± 0.16 s⁻¹

B4: CgAUS (aurone synthase from Coreopsis grandiflora) (Coreopsis grandiflora; R342D) (protein)
chain: T1 sequence (A0A075DN54 86-602) with R257D
notes: as for B1
Km [7]: 4010 ± 290 µM | kcat [7]: 8.26 ± 0.48 s⁻¹

B5: CgAUS (aurone synthase from Coreopsis grandiflora) (Coreopsis grandiflora; C182S/R342D/T338D) (protein)
chain: T1 sequence (A0A075DN54 86-602) with C97S, T253D, R257D
notes: as for B1
Km [7]: 20 ± 0 µM | kcat [7]: 6.52 ± 0.39 s⁻¹
